Target: chicken lysozyme (chicken) (UniProt P00698)
Experiment: far-Western, overlay or dot blot; proteins resolved by SDS-PAGE and transferred to PVDF; biotinylated CaM 1:2400, 30 min at room temperature in TBS-T with 1 mM CaCl2; VectaStain, chemi-luminescence

biotinylated calmodulin (CaM) (from UniProt P0DP23 1-149) (natural protein; other documents disagree on this pair)
fold lower CaM binding signal than for CaMKII: 500 fold

Source: article PMC4010494
